Measurements taken from patent US10864251B2, “Peptides of syndecan-1 for inhibiting angiogenesis” (Wisconsin Alumni Research Foundation, priority 2006, dated 2020).
Where no end group is shown, it is not given here.

Assays:
[1] = test system: FGF-induced angiogenesis in the mouse cornea; assay: Corneal pocket implant angiogenesis assay; assay type: in vivo
Description: FIG. 13—Inhibition of corneal angiogenesis by SSTN. PolyHEMA pellets (0.25 μL) containing 67 ng FGF-2 and sucralfate were implanted into the avascular mouse cornea. Alzet pumps containing PBS, 2500 μM mS1ED or a range of SSTN concentrations (0-100 μM) were implanted subcutaneously on the back of the animals and angiogenesis for 7 days. Fluorescent dextran was injected suborbitally for 2 min prior to sacrifice for observation of the vascular system in dissected cornea (picture insets). Total angiogenesis is quantified as total length of vessels growing from the limbic vessels at the margin of the cornea.
A polyhydroxyethylmethacrylate (PolyHEMA) pellet 1 μl in volume containing 100 ng FGF was implanted into pockets surgically prepared in the center of the avascular corneas of 6 wk-old Balb/c mice. Three mice were used as controls and three mice received a 0.2 ml Alzet osmotic pump implanted subcutaneously on the back of the mice. The pump was loaded with 100 μM synstatin82-130 in sterile saline and delivers 1 μl into the mouse per hr. The mice were allowed to recover and were maintained for seven days. The extent of angiogenesis was recorded by digital camera images of the living mouse. Fluorescent dextran was then injected into the vascular via retro-orbital injection 1-2 minutes prior to sacrifice. Corneas were surgically removed, mounted on slides and the extent of vascularization observed via fluorescence microscopy.
To test the efficacy of synstatin82-130 in vivo, the inventors have used the mouse corneal pocket implant angiogenesis assay. Here, angiogenesis is induced in the avascular mouse cornea by implantation of a polyHEMA pellet containing fibroblast growth factor (FGF), which is a potent angiogenic agent. The FGF will induce angiogenic outgrowth of new vessels from the limbic vessels at the margin of the cornea into the avascular region at the center of the cornea where the pellet is implanted. The inventors have tested recombinant S1ED by supplying it along with the FGF in the pellet implanted into the cornea, and have also introduced it into the systemic circulation of the mouse through the use of an osmotic pump placed subcutaneously on the back of the animal. The latter protocol more closely mimics the manner in which such an inhibitor might be delivered as a drug in patients. […] The concentration necessary for the block in vivo has not yet been measured. […] However, this is likely to be a high estimate, as clearance and degradation are likely to occur, and the protein is likely to be present in the greater volume of the mouse than just the vascular system.
Lastly, SSTN was tested in the in vivo corneal angiogenesis assay. Polyhydroxyethylmethylacrylate pellets (0.25 μL) containing 67 ng FGF-2 and sucralfate as a slow release agent were implanted into the avascular mouse cornea. After seven days, fluorescent dextran was injected suborbitally to highlight the vascular system and the mice were sacrificed. […] To supply the inhibitor in a more quantifiable and physiological manner, recombinant mS1ED or SSTN were delivered systemically via Alzet osmotic pumps implanted subcutaneously on the backs of the animals. […] To correlate this with the active concentration in the plasma, the inventors took advantage of rabbit polyclonal antibodies generated against mS1ED, which detect active SSTN on dot blots. […] Using this method to detect active SSTN in the blood collected from animals after 1 week of SSTN treatment, SSTN is shown to be in the blood at 125-150 nM when present at 10 μM in the osmotic pump.

[2] = test system: MDA-MB-231 human mammary carcinoma cells; assay type: cell-based
Description: FIGS. 5A-5F—Inhibition of MDA-MB-231 human mammary carcinoma cell attachment and spreading on VN by synstatin82-130. MDA-MB-231 human mammary carcinoma cells, which rely on the αvβ3 integrin for attachment and spreading on VN, were plated on 10 μg/ml VN for 2 hr in the absence of peptide (FIG. 5A) or in the presence of 0.1 (FIG. 5B), 0.3 (FIG. 5C) or 1 μM (FIG. 5D) synstatin82-130. The cells were fixed and stained as in FIG. 2.
FIG. 17—Human SSTN peptides inhibit αvβ3-mediated cell attachment and spreading on vitronectin. MDA-MB-231 human mammary carcinoma cells were allowed to attach and spread on either vitronectin (VN) or fibronectin (FN) during a 2 hr assay in the presence of 0, 0.1, 0.3, 0.5, 1.0 or 30 μM SSTN peptide. […] The two peptides tested are derived either from amino acids 88-121 (hSSTN 88-121) or 89-120 (hSSTN 89-120) of the human Sdc1 sequence. Adhesion to VN, but not FN, is mediated by the αvβ3 integrin on these cells and is disrupted by the human SSTN peptides.
Cell adhesion and spreading assays were performed with modification to the previous procedures (Lebakken and Rapraeger, 1996. Briefly, human plasma vitronectin or fibronectin at 10-30 μg/ml were applied to nitrocellulose-coated ten well slides (Erie Scientific) and incubated for 1-2 h at 37° C. Slides were blocked with 1.0% heat-denatured bovine serum albumin for a minimum of 30 min at 37° C. Cells were detached from the substratum using 5 mM EDTA in Tris-buffered saline and resuspended in HEPES-buffered culture medium containing 0.1% heat-denatured BSA. Cells were plated at a density of 15,000 cells per well and allowed to attach and spread for 2 h prior to fixation in 4% paraformaldehyde in CMF-PBS. For fluorescence microscopy, fixed cells were permeabilized in 0.2% Triton X-100, labeled with rhodamine-conjugated phalloidin and analyzed using fluorescence microscopy. For testing inhibition by recombinant mScd-1ED and synstatin82-130, cells were pre-incubated 10 min before plating in the presence of the inhibitor. […] LM609 was used as a specific block to αvβ3 and P1F6 was used as a specific blocker of αvβ5.
The inventors have tested the adhesion and spreading of MDA-MB-231 mammary carcinoma cells on VN in the presence or absence of synstatin82-130. These cells rely specifically on the active αvβ3 integrin for this adhesion (Beauvais et al., 2004). Recombinant Sdc1 ectodomain (SLED) has been shown by the inventors previously to block spreading of these cells with an IC50 of about 3-10 μM (Beauvais et al., 2004). […] Thus, synstatin82-130 is a specific and effective inhibitor of αvβ3 integrin activation.

## SNTETAFTSVLPAGEKPEEGEPVLHVEAEPGFTARDKEKEVTTRPRETV [synstatin82-130]
[1]; 100 μM in osmotic pump, activity, eating, weight, behavior
  ill effects after one week of treatment: no ill effects
[1]; 100 μM in pump, same assumptions
  estimated systemic concentration after 24 hr: ≤ 1.2 µM
[2]; 2 h
  IC50: ~100 nM

B1: S1ED: recombinant mouse Sdc1 ectodomain (amino acids 18-251), expressed in bacteria as GST fusion or 6×His-tagged protein (protein)
chain: QPALPQIVAVNVPPEDQDGSGDDSDNFSGSGTGALPDTLSRQTPSTWKDVWLLTATPTAPEPTSSNTETAFTSVLPAGEKPEEGEPVLHVEAEPGFTARDKEKEVTTRPRETVQLPITQRASTVRVTTAQAAVTSHPHGGMQPGLHETSAPTAPGQPDHQPPRVEGGGTSVIKEVVEDGTANQLPAGEGSGEQDFTFETSGENTAVAAVEPGLRNQPPVDEGATGASQSLLDRK
modifications: left off: a dimerising Fc or GST
notes: recombinant mouse Sdc1 ectodomain (amino acids 18-251), expressed in bacteria as GST fusion or 6×His-tagged protein
[1]; 2.4 mM in pump, 1 μl per hour, assuming 2 ml blood volume, no degradation or clearance
  estimated systemic concentration after 24 hr: approximately 29 μM
[1]; 2500 μM in Alzet pump, 67 ng FGF-2 pellet, 7 days
  corneal angiogenesis: nearly total block of angiogenesis
[1]; in the pellet with FGF or systemic via osmotic pump, 2.4 mM, 1 μl per hour
  FGF-induced corneal angiogenesis: blocks the FGF-induced angiogenesis
[1]; incorporated into the pellet
  corneal angiogenesis: reduced the angiogenesis
[2]; highest concentration tested, 50 μM
  complete block of cell attachment on VN: not seen
